Columns and labels:
Experiment in all cases: Lineweaver-Burk plot of the Michaelis-Menten equation
[1] = substrate: NC(=O)C[C@H](N)C(=O)O; type: biochemical, Thermus thermophilus; settings: 80 °C, pH 9.0, free enzyme
Text: Lineweaver-Burk plot of the Michaelis-Menten equation on asparaginase Ttha0067

[2] = substrate: NC(=O)C[C@H](N)C(=O)O; type: biochemical, Thermococcus litoralis; settings: 90 °C, pH 9.0, free enzyme
Text: Lineweaver-Burk plot of the Michaelis-Menten equation on asparaginase Tli10209

[3] = substrate: N=C(N)NCCC[C@H](N)C(=O)O; type: biochemical, Thermococcus litoralis; settings: 70 °C, pH 10.0, free enzyme
Text: Lineweaver-Burk plot of the Michaelis-Menten equation on arginase Tli08105

B1: asparaginase Ttha0067 (Thermus thermophilus HB8) (protein)
chain: MSAEVLVYRGSLVENRHRVSLALWGPEGLVAYAGDPGRVAYLRSSAKPFQALALYLTGAVERFGLTEEEVALATASHDGTPRHVEVAARFLGKLGLGPEHLVCGVHPPFSREARAALEAQGLAPTPLHHNCSGKHAGMLAAALALGAPAEGYHLPDHPVQRLNLATLEALSGARPGLATDGCSVPTFALSLARAARAFFLLADPGRAPEAYRTPLLRVREAMRRHPDLVAGPGSVDTLLMERLPVVAKRGADGYYGLALLEGPRGPLGVALKVEDGATLAREVAVVALLRALGLDPGKTPWDRPPVRNHRGLEVGHLEARLGLVWV
notes: recombinant, purified by Ni2+-NTA; free enzyme; expression details in supplement
With B1 the Km [1] was 6.178 mM, the kcat [1] was 1210 s⁻¹ and the kcat/Km [1] was 196000 M⁻¹ s⁻¹.

B2: asparaginase Tli10209 (Thermococcus litoralis DSM 5473) (protein)
chain: MSEKRKLERRGAEDMKRILIIGTGGTIASAKTDAGFKSVLTIDEILEKADIKLKNGYEIDTRNILNIDSTLIQPEDWERIAKEVYKALEDYDGIVITHGTDTLAYTASMLTFMIRGINKPVVLTGSMRPVTEEESDAPRNLKAAIRFAMEDVSGIFVAFMDKIMLGCRTSKIRALGLNAFMSINYPDVAYVKGEEVIYNLPQKRFKPKGEPVLDTKYEPRVVFIRLTPGLDGNAIDALVKAGYRGIVLEGYGAGGIPYRKRDILSKIREITPQIPVVMTTQALYDGVDLTKYEVGRKALEAGIIPAKDMTKETTITKLMWALGHTKNVEEVKEIMHTNYADEIEG
notes: as for B1
B2 showed a Km [2] of 4.340 mM, a kcat [2] of 2080 s⁻¹ and a kcat/Km [2] of 479000 M⁻¹ s⁻¹.

B3: arginase Tli08105 (Thermococcus litoralis DSM 5473) (protein)
chain: MLFGIPSSKKPNLYILGIPWDNSSSFRRGCAEGPRAIREATSEELYNSFNEELVNLTEHWSYKDLGDIKADTFEELVEKVNAIVRKHYNGELFLFLGGDHSITYATFKAIKEASNEDFGLIYFDAHPDMYPEYDGDEYSHACTVRRLIEEGWVKGENVVQIGVRAPTREQVEFAKEHGVKIISASGIYRSPVIQVPFEKAYLSFDMDVLDPAFAPGVGNPEPGGLSTRELVEVIKSLNVEIIAFDIVELNPKYDYKGISAFAAAKIIREVLGKAAKTK
notes: as for B1
For B3, the Km [3] was 1.059 mM, the Vmax [3] was 961 µM/min and the kcat [3] was 1.25 s⁻¹. For the same protein, the kcat/Km [3] was 1350 M⁻¹ s⁻¹.

Reference: publication PMC10848425, “Selective enhanced cytotoxicity of amino acid deprivation for cancer therapy using thermozyme functionalized nanocatalyst” (Journal of Nanobiotechnology, 2024)
